Assay [1] deals with T1, CSPG4 (chondroitin sulfate proteoglycan 4) peptide on HLA-C*07:01 (human).
T1 peptide: HIIFPHGSL
In words: killing.

Assay [2] deals with T2, CSPG4 (chondroitin sulfate proteoglycan 4) peptide on HLA-C*07:02 (human).
T2 peptide: PHIIFPHGSL
In words: cytokine release.

The target in assay [3] is T3, CSPG4 (chondroitin sulfate proteoglycan 4) peptide on HLA-C*07:02 (human).
T3 peptide: HIIFPHGSL
In words: cytokine release.

B1: 2Cα-11Cβ cTCR (TCR)
alpha TRAV35*02 TRAJ34*01 CDR3: CAGSYNTDKLIF
beta TRBV28*01 TRBJ2-2*01 CDR3: CASSYDWGGELFF
Consider B1, for which the binding result in assay [1] is recorded as “recognises”.

B2: 11C/73 TCR (TCR)
alpha TRAV12-2*02 TRAJ45*01 CDR3: CAVNAAGGGADGLTF
beta TRBV28*01 TRBJ2-2*01 CDR3: CASSYDWGGELFF
As to B2, the binding result in assay [1] is listed as “recognises”; in assay [2], “no recognition”; in assay [3] it was “no recognition”.

B3: 2C/165 TCR (TCR)
alpha TRAV35*02 TRAJ34*01 CDR3: CAGSYNTDKLIF
beta TRBV3-1*01 TRBJ2-1*01 CDR3: CASSQGWTRNEQFF
Turning to B3, the binding result is “recognises” in assay [1], “no recognition” in assay [2] and “no recognition” in assay [3].

B4: 11Cα-2Cβ cTCR (TCR)
alpha TRAV12-2*02 TRAJ45*01 CDR3: CAVNAAGGGADGLTF
beta TRBV3-1*01 TRBJ2-1*01 CDR3: CASSQGWTRNEQFF
In the case of B4, the binding result in assay [1] is given as “no recognition”.

For the origin of these results see publication PMC10577170 (2023).
